Where “and” joins values, the source holds several entries; their conditions need not be identical. Identical values can stand only once.
Columns and labels:
[1] = target: EcFtsKN (purified N-terminal domain of FtsK from E. coli) (E. coli); experiment: oligomer bands on SDS-PAGE of SEC fractions; fractions of the Superdex S-200 second purification step at a lower DDM detergent concentration, 12% Coomassie blue-stained SDS-PAGE
[2] = target: TtFtsKN (purified N-terminal domain of FtsK from Thermoanaerobacter tengcongensis) (Thermoanaerobacter tengcongensis); experiment: SEC-MALS; Superdex S-200 column, in DDM detergent; masses after subtraction of the micelle contribution; hexamer and monomer peaks
[3] = target: TtFtsKN (purified N-terminal domain of FtsK from Thermoanaerobacter tengcongensis) (Thermoanaerobacter tengcongensis); experiment: oligomer bands on SDS-PAGE of SEC fractions; fractions of the Superdex S-200 second purification step at a lower DDM detergent concentration, 12% Coomassie blue-stained SDS-PAGE
[4] = target: the molecule itself; experiment: quantitative live-cell fluorescence stoichiometry (widefield microscopy); live E. coli in minimal glycerol medium; integrated midcell fluorescence divided by the intensity of a single YPet fluorophore; periodicity from the power spectrum of measured stoichiometries

TtFtsKN (purified N-terminal domain of FtsK from Thermoanaerobacter tengcongensis) (domain or fragment), sequence (Q8R5S4 371-568): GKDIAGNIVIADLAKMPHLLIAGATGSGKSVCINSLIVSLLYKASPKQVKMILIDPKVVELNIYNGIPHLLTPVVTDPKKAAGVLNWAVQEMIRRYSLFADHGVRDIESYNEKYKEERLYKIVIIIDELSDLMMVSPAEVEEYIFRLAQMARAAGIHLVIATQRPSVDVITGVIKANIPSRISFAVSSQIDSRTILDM

Molecule | stoichiometry N [4] | also measured
EcFtsKN (purified N-terminal domain of FtsK from E. coli) (domain or fragment) |  | stoichiometry N [1]: 2 and 6
TtFtsKN (purified N-terminal domain of FtsK from Thermoanaerobacter tengcongensis) (domain or fragment) |  | stoichiometry N [2]: 6; stoichiometry N [3]: 2 and 6
FtsK-YPet (wild-type E. coli FtsK with a C-terminal YPet fusion) (natural protein, UniProt P46889 1-1329, looked up, FtsK, DNA translocase, Escherichia coli; wild-type protein, 1,329 amino acids, integral membrane protein; also called wild-type FtsK; source: expressed from the endogenous wild-type chromosomal locus, E. coli K-12 AB1157 derivative, in live cells; not shown: YPet, C-terminal, kept) MSQEYIEDKEVTLTKLSSGRRLLEALLILIVLFAVWLMAALLSFNPSDPSWSQTAWHEPIHNLGGMPGAWLADTLFFIFGVMAYTIPVIIVGGCWFAWRHQSSDEYIDYFAVSLRIIGVLALILTSCGLAAINADDIWYFASGGVIGSLLSTTLQPLLHSSGGTIALLCVWAAGLTLFTGWSWVTIAEKLGGWILNILTFASNRTRRDDTWVDEDEYEDDEEYEDENHGKQHESRRARILRGALARRKRLAEKFINPMGRQTDAALFSGKRMDDDEEITYTARGVAADPDDVLFSGNRATQPEYDEYDPLLNGAPITEPVAVAAAATTATQSWAAPVEPVTQTPPVASVDVPPAQPTVAWQPVPGPQTGEPVIAPAPEGYPQQSQYAQPAVQYNEPLQQPVQPQQPYYAPAAEQPAQQPYYAPAPEQPVAGNAWQAEEQQSTFAPQSTYQTEQTYQQPAAQEPLYQQPQPVEQQPVVEPEPVVEETKPARPPLYYFEEVEEKRAREREQLAAWYQPIPEPVKEPEPIKSSLKAPSVAAVPPVEAAAAVSPLASGVKKATLATGAAATVAAPVFSLANSGGPRPQVKEGIGPQLPRPKRIRVPTRRELASYGIKLPSQRAAEEKAREAQRNQYDSGDQYNDDEIDAMQQDELARQFAQTQQQRYGEQYQHDVPVNAEDADAAAEAELARQFAQTQQQRYSGEQPAGANPFSLDDFEFSPMKALLDDGPHEPLFTPIVEPVQQPQQPVAPQQQYQQPQQPVPPQPQYQQPQQPVAPQPQYQQPQQPVAPQQQYQQPQQPVAPQQQYQQPQQPVAPQPQDTLLHPLLMRNGDSRPLHKPTTPLPSLDLLTPPPSEVEPVDTFALEQMARLVEARLADFRIKADVVNYSPGPVITRFELNLAPGVKAARISNLSRDLARSLSTVAVRVVEVIPGKPYVGLELPNKKRQTVYLREVLDNAKFRDNPSPLTVVLGKDIAGEPVVADLAKMPHLLVAGTTGSGKSVGVNAMILSMLYKAQPEDVRFIMIDPKMLELSVYEGIPHLLTEVVTDMKDAANALRWCVNEMERRYKLMSALGVRNLAGYNEKIAEADRMMRPIPDPYWKPGDSMDAQHPVLKKEPYIVVLVDEFADLMMTVGKKVEELIARLAQKARAAGIHLVLATQRPSVDVITGLIKANIPTRIAFTVSSKIDSRTILDQAGAESLLGMGDMLYSGPNSTLPVRVHGAFVRDQEVHAVVQDWKARGRPQYVDGITSDSESEGGAGGFDGAEELDPLFDQAVQFVTEKRKASISGVQRQFRIGYNRAARIIEQMEAQGIVSEQGHNGNREVLAPPPFD | 6.12 | 
FtsKΔC-YPet (FtsK derivative lacking the C-terminal domain, amino acids 1 to 818) (domain or fragment, E. coli, UniProt P46889 1-818, looked up, FtsK, Escherichia coli, amino acids 1 to 818 (lacks the C-terminal translocase domain); source: expressed from the endogenous chromosomal locus, E. coli K-12 AB1157 derivative, in live cells; not shown: YPet, C-terminal, kept) MSQEYIEDKEVTLTKLSSGRRLLEALLILIVLFAVWLMAALLSFNPSDPSWSQTAWHEPIHNLGGMPGAWLADTLFFIFGVMAYTIPVIIVGGCWFAWRHQSSDEYIDYFAVSLRIIGVLALILTSCGLAAINADDIWYFASGGVIGSLLSTTLQPLLHSSGGTIALLCVWAAGLTLFTGWSWVTIAEKLGGWILNILTFASNRTRRDDTWVDEDEYEDDEEYEDENHGKQHESRRARILRGALARRKRLAEKFINPMGRQTDAALFSGKRMDDDEEITYTARGVAADPDDVLFSGNRATQPEYDEYDPLLNGAPITEPVAVAAAATTATQSWAAPVEPVTQTPPVASVDVPPAQPTVAWQPVPGPQTGEPVIAPAPEGYPQQSQYAQPAVQYNEPLQQPVQPQQPYYAPAAEQPAQQPYYAPAPEQPVAGNAWQAEEQQSTFAPQSTYQTEQTYQQPAAQEPLYQQPQPVEQQPVVEPEPVVEETKPARPPLYYFEEVEEKRAREREQLAAWYQPIPEPVKEPEPIKSSLKAPSVAAVPPVEAAAAVSPLASGVKKATLATGAAATVAAPVFSLANSGGPRPQVKEGIGPQLPRPKRIRVPTRRELASYGIKLPSQRAAEEKAREAQRNQYDSGDQYNDDEIDAMQQDELARQFAQTQQQRYGEQYQHDVPVNAEDADAAAEAELARQFAQTQQQRYSGEQPAGANPFSLDDFEFSPMKALLDDGPHEPLFTPIVEPVQQPQQPVAPQQQYQQPQQPVPPQPQYQQPQQPVAPQPQYQQPQQPVAPQQQYQQPQQPVAPQQQYQQPQQPVAPQPQDT | 6.05 | 
FtsKN-YPet (N-terminal domain of E. coli FtsK, amino acids 1 to 210) (domain or fragment, UniProt P46889 1-210, looked up, FtsK, Escherichia coli, N-terminal membrane-spanning domain, amino acids 1 to 210; source: expressed from the endogenous chromosomal locus, E. coli K-12 AB1157 derivative, in live cells; not shown: YPet, C-terminal, kept) MSQEYIEDKEVTLTKLSSGRRLLEALLILIVLFAVWLMAALLSFNPSDPSWSQTAWHEPIHNLGGMPGAWLADTLFFIFGVMAYTIPVIIVGGCWFAWRHQSSDEYIDYFAVSLRIIGVLALILTSCGLAAINADDIWYFASGGVIGSLLSTTLQPLLHSSGGTIALLCVWAAGLTLFTGWSWVTIAEKLGGWILNILTFASNRTRRDDT | 6 | 

— PMC3870252, “The N-Terminal Membrane-Spanning Domain of the Escherichia coli DNA Translocase FtsK Hexamerizes at Midcell” (mBio, 2013)
